Experimental data as given in paper PMC7069228, “Targeted cell imaging properties of a deep red luminescent iridium(III) complex conjugated with a c-Myc signal peptide” (Chemical Science, 2020).
Entries after “also recorded” stand apart in the source; their conditions may differ.

Key:
[1] = Freeze-thaw stability of DMSO stock solutions; type: physicochemical; conditions: 10 mM stock in DMSO stored at –20 °C
Human fibroblasts = experiment: Resazurin cell viability / metabolic activity assay; type: cell-based
Protocol: Fig. 3 Ir-PYR is cytotoxic at 20 μM and above. Human fibroblasts were incubated with various concentrations (0 or DMSO only, 5, 20, 50, 80, 100 μM) of either Ir-CMYC (A) or Ir-PYR (B) for 18 hours. Resazurin was added to cells, and after a 4 hour incubation the relative fluorescence intensity was measured (λex = 530 nm; λem = 580 nm). Ir-PYR treated cells (>20 μM) show reduced conversion of resazurin to the fluorescent resorufin indicating reduced cell viability.
Human derived skin fibroblast cells lines were obtained from the Coriell Cell Repository (GM05399, Camden, NJ). […]
Human fibroblasts were plated at 10 000 cells per well of a 96-well plate (Cellbind) and treated with the indicated concentrations of Ir-PYR, Ir-CMYC or DMSO. […] After a 4 hour incubation at 37 °C, fluorescence was determined using a Molecular Devices Spectramax Gemini EM plate reader (λex = […]; λem = 585 nm).
Human fibroblasts were plated at 10 000 cells per well of a 96-well plate and treated with the various concentrations of Ir-PYR, Ir-CMYC (5, 20, 80, 50, 100 μM) or the highest volume of equivalent of DMSO only. […] After a 4 hour incubation at 37 °C, fluorescence was determined using a Molecular Devices Spectramax Gemini EM plate reader (λex = 530 nm; λem = 580 nm).

fish sperm DNA = experiment: Circular dichroism / UV-vis titration with fish sperm DNA (multiple independent binding sites model); conditions: Table S1; buffer 25 mM MOPS, 50 mM NaCl, 1 mM EDTA, 25 °C; n restricted to 3 base pairs
Protocol: In view of the nuclear localisation of Ir-CMYC, we also considered the potential role that affinity to DNA may play. To explore DNA binding of these Ir(III) complexes, UV-vis and circular dichroism titrations were carried out in buffer (25 mM MOPS, 50 mM NaCl, 1 mM EDTA) at 25 °C (Fig. S6, ESI ^†). To quantify the affinity of Ir-PYR for fish sperm DNA, titration curves at 400 and 493 nm were extracted from the circular dichroism data (Fig. 6). Similarly, for Ir-CMYC, titration curves at 373 and 493 nm were extracted from the circular dichroism data. The binding data were analysed globally (Table S1 ^†) in terms of the multiple independent binding sites model, explicitly taking into account the dilution of the iridium complex during the titration.[28] […]
MOPS buffer was prepared by dissolving MOPS (3-(N-morpholino)propanesulfonic acid, CAS[1132-61-2]), NaCl, and EDTA (ethylenediaminetetraacetic acid disodium salt dihydrate, CAS[6381-92-6]) (all obtained from Fisher and used as supplied) in deionised water (Elga Purelab Flex), adjusting the pH to 7.0 using a NaOH solution (pH of the buffer was determined using a Hanna Instruments pH210 microprocessor pH meter with a VWR simple junction universal combined pH/reference electrode) and making up the solution to 0.5 litre. […]

[2] = Longer term stability in water by UV-vis absorption spectra; type: physicochemical
Protocol: Our previous studies on Ir(III) complexes have shown that the use of substituted, cyclometalated quinoxaline ligands can impart red luminescence characteristics.[25] Firstly, the UV-vis absorption and emission spectral characteristics of Ir-PYR were determined. […] By inference, ligand-centred transitions are assumed to dominate below 350 nm, with both quinoxaline and bipyridine located π → π* contributing to the spectrum. At 350–450 nm it is likely that spin-allowed metal-to-ligand (5d-to-π*) charge transfers (^1MLCT) are present, with a weaker (ε < 1000 M^–1 cm^–1) shoulder feature at 450–600 nm, which is presumably due to a spin forbidden (S0 → T1) ^3MLCT absorption. […] To assess longer term stability in water, UV-vis absorption spectra of an aqueous solution (stored at 25 °C in light) of Ir-CMYC were recorded at 0, 24, 48 and 72 h (Fig. S4, ESI ^†).

human fibroblast cells [3] = experiment: Immunocytochemistry with cell membrane permeabilisation (retention of red emission); type: cell-based; conditions: fluorescence microscopy imaging
Excerpt: To investigate whether the NLS was cleaved off Ir-CMYC prior to translocation to the nucleus, an immunoassay was trialled using an antibody raised against c-Myc.

human fibroblast cells [4] = experiment: Confocal fluorescence microscopy: cell uptake and localisation; type: cell-based; conditions: human fibroblasts
Protocol: The non-peptide functionalised complex Ir-PYR was investigated at a range of concentrations (1, 5, 20, 50, 80, 100 μM) with respect to cell uptake, localization and bioimaging capability. Human fibroblast cells were incubated with the different concentration solutions of Ir-PYR and imaged after 18 hours using confocal fluorescence microscopy. With long wavelength excitation and emission parameters (λex = 480 nm; λem = 645 nm) compatible with the spectral properties of the complex, it was clearly evident (Fig. 2) that the deep red emission of Ir-PYR was highly amenable to confocal fluorescence microscopy.
Human derived skin fibroblast cells lines were obtained from the Coriell Cell Repository (GM05399, Camden, NJ). Cells were cultured as monolayers in Dulbecco's modified Eagles medium (DMEM, Sigma, UK) supplemented with 10% fetal bovine serum (FBS, PAN-Biotech, Aidenbach, Germany) and 1% L-glutamine in a humidified incubator with 5% CO2 at 37 °C. For all imaging experiments low passage cells (P10-15) were seeded in 8-well chamber slides (Thistle, IB-80826) at a density of 15 000 cells in 250 μL of media.
Stock solutions were diluted to the stated concentrations in cell culture medium for incubation with fibroblasts. The equivalent amount of DMSO (<0.5% total volume) was added to controls for comparison. For nuclear visualisation cells were counterstained for 10 minutes with Hoechst 33342 diluted in cell culture media (1 μL mL^–1, Thermo Fisher, UK). For non-live imaging, cells were fixed in cold 4% paraformaldehyde for 10 min at room temperature and rinsed with PBS. For live-cell colocalization studies, cells were incubated with Ir-PYR for 12 hours prior to counterstaining with Hoechst 33342, and either LysoTracker-green DND-26 (L7528, Thermo Fisher, UK), or CYTO-ID Autophagy detection kit 2.0 (175–0050, Enzo Life Sciences, UK), as per the manufacturer's instructions. Briefly, LysoTracker was diluted in cell culture media to a final concentration of 200 nM and left for 15 min at 37 °C. […]

Sequence: PAAKRVKLD [Ir-CMYC, NLS peptide … functionalised at N-terminus with cyclometalated iridium(III) quinoxaline/bipyridine complex]
- effect of 3 freeze–thaw cycles on compound signal [1]: did not appear to reduce the compound signal
- cytotoxicity (Human fibroblasts; 5–100 μM, 18 h incubation, resazurin): No cytotoxicity was observed; also recorded: essentially non-toxic
- toxicity: changes in cellular morphology or mitochondrial activity (Human fibroblasts; 24 hours after incubation, resazurin cell death assay): no (or minimal) toxicity
- K (fitted equilibrium constant, binding to FS DNA) (fish sperm DNA): 4.5 ± 1.0 103 M-1
- UV-vis absorption spectra at 0, 24, 48 and 72 h (chemical stability in water) ([2]; aqueous solution stored at 25 °C in light, read-out UV-vis absorption): superimposable
- solubility in water ([2]; inferred from superimposable UV-vis spectra of aqueous solution over 72 h, 25 °C): excellent solubility
- red emission in cells after immunocytochemistry procedure which permeabilises the cell membrane (human fibroblast cells [3]): no longer evident
- uptake / staining at 1–5 μM (human fibroblast cells [4]; 1–5 μM, 18 h, confocal microscopy): No uptake or staining
- concentration giving good cell uptake and nuclear localisation (human fibroblast cells [4]; 18–24 h incubation, confocal, co-localisation with Hoechst 33342, n = 2): 80 to 100 µM
- staining at 20–50 μM (human fibroblast cells [4]; 20–50 μM, 18 h, confocal microscopy): weak punctate staining
